The values that follow come from paper PMC11532496.

Assay [1] addresses non-stabilized CE1 design Env SOSIP trimer (CH505.M5.G458Y N386R without F14 and 2P) (HIV-1) (UniProt Q2N0S6). Description: SPR. For orientation: Surface plasmon resonance follows binding to a sensor surface in real time, without labels.
Assay [2] has as its target CH848-d949 DE3 design Env SOSIP trimer (N408K/N442A) (HIV-1). The assay is described as follows: SPR.

Take CH235.12 Fab: the fold change of ka against CH505.M5.G458Y in assay [1] was determined as 2 fold.

B1: DH270 lineage intermediate I5.6 Fab (Fab, V domains shown)
VH: QVQLVQSGAEVKKPGASVKVSCKASGYTFTDYYIHWVRQAPGQGLEWMGWINPNTGRTNSAQKFQGRVTMTRDTSISTAYMELSRLRSDDTAVYYCARGGWIGLYYDSSGYPNFDYWGQGTLVTVSS
VL: QSALTQPASVSGSPGQSITISCTGTSYDVGSYNLVSWYQQHPGKAPKLMIYEVSKRPSGVSNRFSGSKSGNTASLTISGLQAEDEADYYCCSYAGSSTVVFGGGTKLTVL
Regarding B1, the fold change of ka against the unmutated CH848-d949 trimer in assay [2] amounted to 45 fold.
